Data published in patent US20150359847A1, “METHOD AND COMPOSITION FOR CONFERRING NEUROPROTECTION” (BLOOD SYSTEMS RESEARCH INSTITUTE, priority 2014, published 2015).

Assays:
[1] = tested on: S6 Ribosomal Protein (S235/236) in primary hippocampal neurons; experiment: S6 Ribosomal Protein (S235/236) phosphorylation in primary hippocampal neurons; type: cell-based, mouse; details: 1 μg/ml TIMP3, 15 mins
Method: (§1) SH-SY5Y cells were obtained from ATCC (Cat# CRL-2266, Manassas, Va.) and were cultured in DMEM and 10% FBS up to passage 10. For differentiation of SH-SY5Y cells into a neuronal phenotype, cells were first plated in DMEEM+10% FBS for 24 hrs before exchanging media in DMEM+1% FBS 10 μM retinoic acid. Differentiation was performed for 3 days before experimentation. Hippocampal neurons were prepared according to the protocol by Beaudoin et al. (Nature Protocols 2012; 7(9):1741-1754) with minor modifications. In brief, after trypsin digestion of hippocampi isolated from P1 mouse pups single cell suspensions was created by trituration and plated onto Biocoat™ poly-D-lysine coated 12-well plates (Cat#354470, BD Biosciences, San Jose, Calif.). […]
Pathscan Antibody™ array kits were purchased from Cell Signaling Technologies (Danvers, Mass.). PathScan® RTK signaling antibody array kit (Fluorescent Readout, Cat#7949) and PathScan™ Akt signaling antibody array kit (Fluorescent Readout, Cat#9700) were performed as per manufacturer's instructions. Imaging was performed on a LI-COR Odyssey™ infrared scanner and pixel densities measured by in house LI-COR Image™ suite software. […]
Lysates was analyzed in conjuncture with the LI-COR Odyssey™ infra-red imaging system. […] After further wash steps images were obtained using a LI-COR™ Odyssey scanner and quantified using LI-COR™ Image Studio software. […]

[2] = tested on: hippocampal neurons; experiment: Sholl analysis of isolated hippocampal neurons; type: cell-based, mouse; details: 1 μg/ml TIMP3, 72 hrs
Method: as §1, with “Calif.). 2 pups were used per well and cell suspensions were incubated for 10 minutes per well for a total of 6 wells. The serial incubation allowed for variation in cell densities applicable to different experiments but also contributed to the reduction in non-neuronal cells.” for “Calif.).”
Sholl analysis on processed images of isolated hippocampal neurons was conducted using the Fiji derivation of Image J. (Hypertext Transfer Protocol://Fiji.sc.Fiji). […] After neurites had been traced the images were rendered as an analyzed skeleton and Sholl analysis was run on the image from the Analyze menu option.

[3] = tested on: DCX+ve neurons in the subgranule zone of the dentate gyrus; details: 7 days post-TBI
Source text: The mouse controlled cortical impact (CCI) injury model was used as previously described. In brief, mice were anesthetized with 5% isoflurane and 1:1 O2:N2 mixture. Animals were mounted on a stereotaxic frame and were secured by ear bars and an incisor bar. Anesthesia was maintained with 2.0% isoflurane and 1:1 O2:N2 mixture. A 5-mm-diameter craniotomy was made midway between bregma and lambda on the right side, with the medial edge of the craniotomy 1 mm lateral to midline. Injury was produced using a magnetic impactor mounted at an angle of 110° from the vertical plane. A single impact at a velocity of 4+/−0.2 m/s was used inflict a moderate to severe injury (1.2-1.3 mm impact depth). After injury, the incision was closed. Sham animals underwent identical surgeries except for impact injury. Core body temperature was monitored using a rectal thermometer and maintained at 36.8° C.-37.2° C. with a heating pad throughout the procedure. For treatments, TIMP3 (60.0 μg/kg) or vehicle control (PBS) administration was performed at 2, 24, and 48 hrs after injury via tail vein injections in a total volume of 125 μl. Animal research was performed with approval of the Institutional Animal Care and Use Committee at ISIS Services LLC (San Carlos, Calif., USA). […]

[4] = molecular target: MMP-9 (Homo sapiens, UniProt P14780); experiment: SensoLyte Fluorimetric MMP-9 Activity Assay; type: biochemical; details: dose response; 1 μg/ml TIMP3
Chain of MMP-9 (P14780 94-707, species assumed): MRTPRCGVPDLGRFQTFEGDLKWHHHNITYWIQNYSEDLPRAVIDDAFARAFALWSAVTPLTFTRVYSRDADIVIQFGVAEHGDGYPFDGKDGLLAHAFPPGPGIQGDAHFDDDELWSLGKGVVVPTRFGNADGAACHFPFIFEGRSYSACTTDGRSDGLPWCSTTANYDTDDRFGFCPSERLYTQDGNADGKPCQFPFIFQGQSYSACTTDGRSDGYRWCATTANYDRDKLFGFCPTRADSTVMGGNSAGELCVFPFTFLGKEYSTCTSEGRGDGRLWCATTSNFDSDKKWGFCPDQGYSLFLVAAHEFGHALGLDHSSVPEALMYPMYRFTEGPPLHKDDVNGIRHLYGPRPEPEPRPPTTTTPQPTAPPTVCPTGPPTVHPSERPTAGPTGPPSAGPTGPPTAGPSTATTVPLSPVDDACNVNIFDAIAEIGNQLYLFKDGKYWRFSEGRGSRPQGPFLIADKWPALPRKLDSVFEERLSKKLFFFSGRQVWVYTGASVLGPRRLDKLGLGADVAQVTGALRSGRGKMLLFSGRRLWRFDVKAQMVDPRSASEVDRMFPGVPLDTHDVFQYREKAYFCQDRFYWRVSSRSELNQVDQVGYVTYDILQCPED
Source text: SensoLyte Fluorimetric MMP-2 Activity Assay Kit™ (Cat#71151) and SensoLyte Fluorimetric MMP-9 Activity Assay Kit™ (Cat#71155) were purchased from AnaSpec (Fremont, Calif.) and performed per manufacturer's instructions.

B1: TIMP3: Recombinant tissue inhibitor of matrix metalloproteinase-3, a soluble protein released by MSCs, obtained from Amgen Inc. (protein)
chain: CTCSPSHPQDAFCNSDIVIRAKVVGKKLVKEGPFGTLVYTIKQMKMYRGFTKMPHVQYIHTEASESLCGLKLEVNKYQYLLTGRVYDGKMYTGLCNFVERWDQLTLSQRKGLNYRYHLGCNCKIKSCYYLPCFVTSKNECLWTDMLSNFGYPGYQSKHYACIRQKGGYCSWYRGWAPPDKSIINATDP
B1 was tested, and the “S6 Ribosomal Protein (S235/236) activation, western blot” value [1] was “activates S6 Ribosomal Protein (S^235/236)”, the “S6 Ribosomal Protein (S235/236) phosphorylation, antibody array” value [1] was “phosphorylates mTORC1 pathway target S6 Ribosomal Protein (S^235/236)” and the “neurite complexity (Sholl analysis)” value [2] was “significantly increased neurite complexity”. For the same molecule, the “DCX staining, contralateral side” value [3] was “no significant differences on the contralateral side”, the “DCX+ve neurons, ipsilateral” value ([3]; IV TIMP3 vs TBI) was “significantly attenuated” and the “MMP-9 inhibition (Sensolyte FRET assay)” value [4] was “can fully inhibit”.
